Results published in patent publication US20200123268A1 (UNIVERSIT DEGLI STUDI MAGNA GRAECIA CATANZARO, published 2020).

Key:
[1] = biological target: T1, human CD43, endogenous, on primary cells and cell lines that carry the UMG1 epitope (human, UniProt P16150 20-400, native glycosylation of the cell concerned); test: competition flow cytometry on CEM cells against 1 ug/ml h-UMG1-PE
T1 construct: also called UMG1 antigen; the target
T1 sequence: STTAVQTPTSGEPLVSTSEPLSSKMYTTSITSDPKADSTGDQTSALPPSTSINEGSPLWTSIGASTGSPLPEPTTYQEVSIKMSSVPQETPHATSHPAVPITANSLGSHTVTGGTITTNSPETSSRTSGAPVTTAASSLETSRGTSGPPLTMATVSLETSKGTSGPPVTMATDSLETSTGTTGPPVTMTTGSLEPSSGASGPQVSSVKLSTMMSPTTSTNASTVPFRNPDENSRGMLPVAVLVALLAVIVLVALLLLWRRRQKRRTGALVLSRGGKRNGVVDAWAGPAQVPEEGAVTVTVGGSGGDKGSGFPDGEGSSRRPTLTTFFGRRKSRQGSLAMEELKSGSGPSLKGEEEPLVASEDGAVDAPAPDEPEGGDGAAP
Procedure: (§1) Approximately, 500,000 cells were collected and stained for each test. Cell were analyzed and measured with FACS Canto (Becton Dickinson) and analyzed by DIVA software (BD FACSDiva™ software). For each measurement 10,000 events were gated using the DIVA software. Each experiment was performed in triplicate.

[2] = biological target: T2, recombinant human CD43 extracellular portion (aa 20-253) produced in E. coli (human, UniProt P16150 20-253); test: SPRi (PlexArray HT), antibody printed on the chip, Recombinant Human CD-43 (AA20-253) as analyte at 2.84 to 45.6 nM, 25 C
T2 construct: Made in E. coli, without mammalian glycosylation; No tags are stated; also called aglycosylated extracellular portion of CD43; unglycosylated-CD43 protein
T2 sequence: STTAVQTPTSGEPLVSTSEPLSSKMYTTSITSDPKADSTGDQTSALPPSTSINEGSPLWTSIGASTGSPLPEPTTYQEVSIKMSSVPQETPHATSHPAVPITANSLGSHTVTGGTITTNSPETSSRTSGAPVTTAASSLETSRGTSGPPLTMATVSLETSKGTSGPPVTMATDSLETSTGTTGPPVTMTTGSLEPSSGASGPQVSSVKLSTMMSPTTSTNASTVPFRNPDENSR
Procedure: (§2) Antibodies dissolved in water were manually printed onto the bare gold-coated (thickness 47 nm) PlexArray Nanocapture Sensor Chip (Plexera Bioscience, Seattle, Wash., US) at 40% humidity. Different concentration of the analytes (CD43) were tested for affinity. Each concentration was printed in replicate, and each spot contained 0.2 uL of sample solution. The chip was incubated in 80% humidity at 4° C. for overnight, and rinsed with 10×PBST for 10 min, 1×PBST for 10 min, and deionized water twice for 10 min. The chip was then blocked with 5% (w/v) non-fat milk in water overnight, and washed with 10×PBST for 10 min, lx PBST for 10 min, and deionized water twice for 10 min before being dried under a stream of nitrogen prior to use. SPRi measurements were performed with PlexAray HT (Plexera Bioscience, Seattle, Wash., US). Collimated light (660 nm) passes through the coupling prism, reflects off the SPR-active gold surface, and is received by the CCD camera. […] The signal changes after binding and washing (in AU) are recorded as the assay value.
(§3) Selected protein-grafted regions in the SPR images were analyzed, and the average reflectivity variations of the chosen areas were plotted as a function of time. Real-time binding signals were recorded and analyzed by Data Analysis Module (DAM, Plexera Bioscience, Seattle, Wash., US). […]

[3] = biological target: T3, CD43 #5 (truncated CD43, aa 91-400), expressed in HEK293T cells (human, UniProt P16150 91-400); test: western blot of lysates of transfected HEK293T cells
T3 construct: also called CD43 Clone #5; not shown: His tag from the vector pLenti-CMV-(insert)-Histag-GFP-2A-Puro
T3 sequence: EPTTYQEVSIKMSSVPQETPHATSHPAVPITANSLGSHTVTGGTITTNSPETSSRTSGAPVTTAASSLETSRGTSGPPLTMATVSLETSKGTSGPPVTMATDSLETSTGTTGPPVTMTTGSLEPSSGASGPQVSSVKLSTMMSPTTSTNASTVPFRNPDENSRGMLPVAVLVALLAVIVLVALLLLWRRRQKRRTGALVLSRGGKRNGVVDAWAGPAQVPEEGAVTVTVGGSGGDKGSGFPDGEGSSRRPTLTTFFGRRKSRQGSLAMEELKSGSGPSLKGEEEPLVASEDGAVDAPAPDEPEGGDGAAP

[4] = biological target: T1, human CD43, endogenous, on primary …; test: competition flow cytometry on HPB-ALL cells against 1 ug/ml h-UMG1-PE
Procedure: as §1

[5] = biological target: T4, CD43 #6 (CD43 with deletion of aa 64 to 78), expressed in HEK293T cells (human, UniProt P16150 20-400); test: western blot of lysates of transfected HEK293T cells
T4 construct: also called CD43 Clone #6; not shown: His tag from the vector pLenti-CMV-(insert)-Histag-GFP-2A-Puro
T4 sequence: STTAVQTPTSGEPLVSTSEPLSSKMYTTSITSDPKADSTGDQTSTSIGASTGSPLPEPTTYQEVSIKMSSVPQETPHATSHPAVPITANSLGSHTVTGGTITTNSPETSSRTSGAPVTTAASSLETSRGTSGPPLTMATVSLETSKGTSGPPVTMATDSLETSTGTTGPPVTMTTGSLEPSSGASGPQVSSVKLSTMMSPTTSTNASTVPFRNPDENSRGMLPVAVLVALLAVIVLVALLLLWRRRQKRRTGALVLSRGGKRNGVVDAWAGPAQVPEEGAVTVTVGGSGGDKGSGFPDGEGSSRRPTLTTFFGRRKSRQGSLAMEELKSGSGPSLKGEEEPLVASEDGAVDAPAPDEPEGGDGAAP

[6] = biological target: T2, recombinant human CD43 extracellular …; test: SPRi (PlexArray HT), antibody printed on the chip, CD43 aa 20-253 from E. coli as analyte, 25 C
Procedure: as §2, §3

- IC50 (read off the curve) [1]: ~0.04 µg/mL
- koff [2]: 0.000511 s⁻¹
- kon [2]: 5140 M⁻¹ s⁻¹
- binding result [3]: no binding (tested: 1:500 dilution)
- IC50 (read off the curve) [4]: ~0.4 µg/mL
- binding result [5]: no binding (tested: 1:500 dilution)
- Kd [6]: 99.4 nM
B1: h-UMG1 (humanized UMG1 antibody H3-L4) (antibody, human IgG1, kappa, V domains shown)
VH: EVQLVESGGGLVQPGGSLRLSCVASGFTFSSFGMHWVRQAPGKGLEWVAYISSGSGNFYYVDTVKGRFTISRDNAKNSLYLQMNSLRAEDTAVYYCARSTYYHGSRGAMDYWGQGTLVTVSS
VL: QVVMTQSPAFLSVTPGEKVTITCSASSSVSSMYWYQLKPDQAPKLLIYDTSKMASGVPIRFSGSGSGTDFTFTVSSVEAEDAATYYCQQWSSYPPITFGGGTKVEIKR
notes: The full chains are given as Human Heavy Chain (VH3) and Human Light Chain (VL4); IgG1; also called unconjugated h-UMG1
